In PMC3290749 (Oncogene, 2011):

Target: IgB-1 (UniProt P00533 25-645)
Assay: ELISA

B1: heparin-binding EGF like growth factor (ligand, UniProt Q99075 63-148, looked up)
chain: DLQEADLDLLRVTLSSKPQALATPNKEEHGKRKKKGKGLGKKRDPCLRKYKDFCIHGECKYVKELRAPSCICHPGYHGERCHGLSL
- binding result: binds
